Assay: label from the status in PepcDB records
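Also: failed if final PepcDB status was selected cloned or expressed and not failed if soluble or beyond.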

Sequence | protein production
MKRKAVNFHPQVDMSIGDKYLLKEFIDEGSFGYVWKAVNLENRQTVALKIPKDQERGDNTLSEGKEFIGSHHPNVISIYWMGRVDGVFLIEMEYFNGHKLSDELCETGFKSPRTFEEIYNLFFQILDGVEYIHSKHICHGDIKPQNILIDGKIAKITDFGTSKLIEDLFIKTIDGGGTWAYMAPEVAGSNRRYLNSDIYSLGVLLYKFLTGRTPHETANQLINNIPYPKPREINNNIPESVERIIMKLLKRNPDERYQNISEIKRDLEEALRSEDRNIISYNERAEVKYEDTDWIERVIRYYKNNEFDKAELLLKTEYENGNKSADVLYHIAYTYFQQGRYFESMDVIKDIDITQVEDIRQEALEDNLLYLKGKLFFELKKYEEAVKVYEKLVSRNPDDLNYRYKLACAYGLNDEQEKSIEILEDINKKTPGMLYIVKKLGHAYDQIKDFKKARAYFNYAIRLDPSDTIIRNRLEEYSKYFNYLGY | failed
EADYKQATALELATLVREKKVTSEELVKIALAITKRENPTLNAVITLREEAALTEAKALQDTGQPFLGVPLLLKGLGQSLKGESNTNGFGFLQDQVAGGTSTFVKALQNAGFIIIGQTNYPELGWKNISDSKLYGVSVNPWNPNHYSGGSSGGAGASVAAAFVPIASGSDAGGSIRIPASWTGTVGLKPSRGVIIGNSNSAKGQTVHFGLSRTVADTNALFETLLTKKDLPAGHLSQAQPIAYTTESPAGTPISAEAKEAVAEAVAFLKDQGYTLVEVKHPVDGERLMKNYYTVAAGSAGIADFMARQKLKRPLERNDVELLTWALFQTGKNITSEETTAAWTDIALQAQAMDEFYQQYPILLTPTTAATAPSIDNPLLKPEHAAQMEKIDQLSPAEQKQLIYDQWLTAFTYTPFTQQANLFGHPALSVPTYVSKEGLPLGIQFNSALNEDRTLLQLGALFENNHK | failed
MGQNQFRWSNEQLREHVEVIDGTRSPHIVLRNATYLNSYIREWMQANIWIYDDRIIYVGEKLPEQLHECEVIDCDGKYVVPSYIEPHAHPYQLYNPETLANHAMQFGTTTFINDNLTLFFTLKRELEHHHHHH | failed
MILEDLNQLPAAEASHTFMQCSASAWVKKMVTARPFSSELAIKKAADDAWQGLTEQDYFEAFEGHPKIGDVSSLRAKYANTKELAGNEQGLVKEANDDVLEVLSQGNSDYEKKFGFIFIVCATGKSAKQMSDLLQARLPNNKTQELVNAAEEQRKIFQLRIDKALAEGLEHHHHHH | failed
MTSDIKAILEQVVISPDVPIAEAIAQLDRAGTGSLVVCSADKKLYGLLTDGDVRRALLKAVDMGAPCGDIANRKPVITFVPLLPIEALRLMNHHDINHLPVLDAEGRVVDFLLRRDLVAEDELAARARRRLDSVVIPCSASIAEAIAQLDRAGTGALVLCSEGDRLHGLLTDGDIRRAVLRGISLDAPCQDVASRRPVTVEPSFSAAQALHLMNQHDINHLPVVDDTGRVVDFLLRRDLIADDQLNLSAVVMAGGYGKRLLPLTEQVPKPMLPVGDRPLLERTIDQLRRSGIREVNLTTHYLPDSIVEHFGDGDSFGVKLNYLKEDHPLGTAGGLKLMKKASDPFLVMNGDILTGVPFQEMFAYHRKNGAEITVGVRKYEVQVPFGVVECDDVRITGLKEKPSLTFFINAGIYLLEPSVCDLIPEGERFDMTDLIQKLLDEGRSVVSFPIMEYWLDVGRHEDYQKAQEDVRSGKIQLEHHHHHH | failed
MQPIDRAQAQQRANDILVFQRELQRLDQEQAFRLEPAQARQLADYHLALLDSYRDRFDIDHDLRSQQLSLGMRVASFFGALAFAASVFLLFYRFWGLFPTVAQVAILIGSAFAAFFATLWVQAKDASGYFSKLAAMVAFACFVLDLTMLGQIFNVTPSDLALVPWALYALLLAYLCNARLLLAAAILCVMGFIAARVGTWGGGYWLSVGERPENFFPAAALIFAVPLCFDQRNFSGFAVIYRVFALLGLFLPMLVLANWGSGSYLALPSALIEGLYQVAGFVAAALVIWLGARRNWADVSNTGITFFVIFLYTKFFDWWWEAMPKYLFFLVLGLSALLILLVLRRLRTPLGIAARTDA | failed
DWLDLNTTSSVETGQAIVTLDDAQIALNGIYRLASGHSYYGDNYWYYGDCRAADVQARITKGDGKRVSPYYEYNVLASDNLNIVLPWNTVYKVIRQTNNLIQKIESGSIQSSDTKELNRIKSEALVMRGLSLFNLTRLFGMPYTNDKGASLGVPIETSPSDPTHKPSRSTVAQCYEQVVSDMSNALSGLRQETSNGYINYWAAQALLSRVYLNMGEYQKAYDAATDVIKNNGGRYQLYSYEEYPNVWGQDFQSESLFELYITLSEPSGGTGGEGAPMVYANEATVDWNNLILSEDFLNLLNEDPKDVRHCLTKESVIENNTGLPAAAMHEKVYLAKFPGKTGDDPKTNNICIIRLSEVYLNAAEAGLKKGTDIEEAQGYLNDIISRRTTDTSQQVSTETFTLDRILKERRKELVGEGEVFYDYLRNGLAIERKGSWHLETLKASNAQKIEATDLRIALPIPQSEIDANPNIQQNPR | not failed
MLLHLSTWQEVEAYLQQSKGIIFPIGSTEQHGPTGLIGTDAICAEAIAAGVGDATGAIVGPTINVGMALHHTAFPGTISLRPSTLIQVVRDYVTCLAKAGFSKFYFINGHGGNIATLKAAFSETYAHLEDLQIANAQQVQCQVANWFMCGSVYKLAKELYGDQEGSHATPSEVALTQYVYPEAIKQAPLSPEVASGHRIYSAADFRVRYPDGRMGSNPGLATPEHGKQFYDLAVKELSNGYLEFVNAD | not failed
MDKRRVVVTGVGAVTPIGNDAETSWENAKKGVNGVAKMTRLNPDDFPVKIAAELKDFDVEKYLEKKEARKMDRFTHYAIASAEMAVQDSGLVIDDSNANRVGVWIGSGIGGMETFETQYEIFLNRGHRRVSPFFVPMMIPDMGSGQVSIRFGAKGINSTTVTACATATNSIGDAFKVIERGDADAMITGGAEAPITKMSLAGFTANKALSLNPDPETACRPFDKDRDGFIIGEGAGIVILEEYEHAKARGAKIYAEIVGYGATGDAYHITAPAPNGEGAARAMKMAIDDAGLTPDKVDYINAHGTSTPYNDEYETQAIKTVFGEHAKKLAISSTKSMTGHTLGASGGIEAIFALLTIRDNIIAPTIHLKNQDEVCDLDYVPNEAREANVNVVISNSFGFGGHNATLVFKRIED | not failed
EFVINPNGKSEVCILHEYMQRVLKVRPVYNFFECENPSEPFGASVTIDGVTYGSGTASSKKLAKNKAARATLEILIPDFVKQTSE | not failed
SLAGETINFCKGWKFHLGDAGKGASSSSYNDSQWRILNIPHDWSIEGTYKQFENGTDWQSGFLPAGISWYRKTFTIPSKWKNKKVQILFEGVYLNSEVWINGHWLGKRPNGYISFVYDLTPYLQEGKNQIAVKVDHSKALTGRWYTGSGIYRPVYLLVSNPTHIPYSGIHFRSKLQNKQSATYTLSIEIETQEKKPIKVKTYLQAPNGSIADTSEKIFVSSADSLCFLSGSIRKPLLWSPDSPNVYTLICQLTRDNKILDECRLPVGFRQLEFNPVSGFLLNGKSLKIKGVCDHHTVGAVGAAVPDDLLHYRLKLLKDMGCNAIRTSHNPFSPAFYNLCDTMGIMVLNEGLDGWNQPKAADDYGNYFDEWWQKDMTDFIKRDRNHPSIIMWSIGNEVTGATPEIQHNLVSLFHQLDPDRPVTQGGTDPTRGMKTDYQKKFNYLDIIGFNGNGEEIGELEHFHKNYPTLCAIATEVPHTYQTRGVYRSQTQWRRRDFPAPWEKGNINWEQFKHRVFPIPDLTEKECFPEESDYPYYQSSYDNASVRISARKSWQRTCSFPWLMGEFRWGSFDYLGEAEWPQRCGNFGIIDIAAIPKDAYFLYQSLWTDKPMVHLLPHWTHPGKEGKTIPVVIYTNCDAVELFINNVSLGSKPYTGEQLIWLVPYSPGKIEARGIKKGKIVATDCYQSAEAPHSVALASNKYSVKAGSDEVIRIEIDITDKNGIPCPYASNELSFHVSGPLRLLGVDNGNPTDMFPYQQPHCRCFRGKCVVLLQSDEEKGKGTLTVQGTKLVEKKLIIEVIEG | not failed
MARGIWGVDSAQVVTDQLFQCVRTELGYPKFWGRYLSEVPNVSEGLTRDEIVRIRNYGVKVLPIYNAFREAVGYANGQVAARNAVFHARRLGIPKNKLLFANIEDFFAVDAAWIAAWVETLYPTGYRPGLYADPTKGDFAAAYCEAVSRNNQVAVQAVIWSAAPRPGTTKEQKAPRYQPAAPPCSANVWVWQYGRDAEVCPVDTNLADRRLLDFLY | not failed
MKAFFSFVIRWVIPLLGLIALSLIIWFIGPLLEFLVPEGRRWALIIFIFALWIGYRVFCIIQARRNAAKVLQSLAADTPPDPDSVATAEELAALRQRMDEALALLKKAKLGGDERRNLYELPWYVIIGPPGSGKTTALVNSGLHFPLAAQLGAGAVRGVGGTRNCDWWFTDQAVLLDTAGRYTTQDSHATVDKAAWLGFLDLLKTQRSRRPIDGAFVAISLSDLLLGSEAERAAHAAAIRLRIQELYTQLGVRFPIYLMLTKLDLVPGFMEFFDSLSKEERAQVWGMTFALDDGKSGDSPLAHLPAELAALEQRLNERLVERLQQERDPARRDLIYGFPQQFAALKESLQSFLEGVFKPNAFEERVLLRGVYFTSGTQEGSPIDRLIGAMAQSMNLDRQHLARQTGTGRSYFIEKLFSAVAFAERGLVGVNPKVERRRKWIARGALAGTVALVLVVSTLWIISYRANQAYIAQVDQRVGPVRQDVQNLSPAQRDVLAVLPLLNATRHLAGDAPGWAEGLGLYQGDMLEAESASVYRKLLVAVFAPRLMTRIEEQLHSGGNSDFLYEGLKAYLMLADSEHYDPDFIKAWITLDWDHTLARDLPPEQRQALTGHLQALFEKHPPNARLDQRLIDDLRRQLQQLPVAQRVYDRVKRAKLPDGVPDFRLSEAGGRDAALVFTRKSGKPLSEPLSGLFTAKGYRQGFLLASLNQAGTLAEEQWVLGRDQADQQNVASLAADVRRLYFQDYLRQWDALLADIDFVPITSVAQAADVLRILSGPTSPLKKLLVAVAKETDLQQEERLLAAQGQKVEGGVDQLKQRLGNLLGQEQSANPAAVASSEDPVSAHFAELNSLVSKGEGEPAAIDGLLADMNALYVQVSAMVGASGDALLGEAKNQASAAAARVSLTAERQPPVVQGLVKSVVGSTTNTMMGGVRNQLNAAWVSEVVNVYRQSLSGRYPMSPGSSRDATLEDFGQFFGTGGVMDNYFRKYLQPYVNTSTTTWSWQPGAAQKLGISPGVLQTFQRASNIRDAFFRSSGGTQPAVRFELKPVAMDANISQFLLDLDGQQLSYDHGPSRPVAMQWPNPGSIGVVRLSIMPPSATGRSGITLDGPWAWFRLLEQSDLTATNSPDRFNLRLRVDGASISYELRASSAFNPFKSRVLSGFSLPERL | failed
MRRFALTVALPKGRMFREAYEVLKRAGLDLPEVEGERTLLHGKEGGVALLELRNKDVPIYVDLGIAEIGVVGKDVLLDSGRDLFEPVDLGFGACRLSLIRRPGDTGPIRRVATKYPNFTARLLKERGWAADVVELSGNIELAAVTGLADAVVDVVQTGATLRAAGLVEVEVLAHSTARLVVNRQALKLKRAVLKPLIQRLRELSGS | not failed
MAKLSPTTRIFALVIKEILTLFKDPKGRIVLIAPPLLQLLIFSFAATMEIKNISIGILNQDFGKHGYEVIQRFIGSPTFSKVFFIQKQSDIKPIIDNQEAMVVMTIPQDFSRKIESNSQANIQLILDGRRSNATQIVNGYISSIIENYNQEIQKTHGAIMTPPVMVTRSWFNENLLYLWFTVPSLVCILSMLISLVVTALSVARERELGTFDQLLVSPLTPYEILIGKTIPAIIIGLAEGLLMWVAAVWLFDVPFYGSPLLMVYILFIFIMSTVGVGLFISSMCKTQQQAILGVFIYMVPVVTLSGYASPVENMPEWLQDLTWFNPLKFTLIAVIGIFLKGMSALEVFITTWPLLLVGAVTLFIAGWFFKQRME | failed
RSRPSPYACHVEAWAADGRQRVRMANPGHATLVLHVYDCLRLAQGPRRYTIEPGRQWEDSWPDAGADLACDLWILGPDGFHRHIRR | failed
MIRILICFSLITASLLITSIFANSALLFTEFIHSLVDLIPIAFAFYALRIIDRIDSKYTYGLHRLEIVSSLFNIFTVVAGSVFSVYISTVELIEGSRGDFLLVLISSSIALSLSLVASTDKSEEGRVSGSKLHAIQDSLAYILAVISSLLIIIMKIYFIDPVSAYILNGVLVITSLSPLKFSYNILMEKSPIDTKSVETELQSIFPQVHHIHVWSICDHLNVATLHVRENPDLTLRELDKKREYAEKVLREKFGITHVTIQFEANNKKERLEKI | failed
